Experimental data from patent US20210369842A1 (Genmab, published 2021).

How the values were obtained:
[1] = biological target: T1, African elephant (Loxodonta africana) CD137 (African elephant (Loxodonta africana)); assay: flow cytometry on transfected HEK293T-17 cells
T1 construct: Expressed on transfected HEK293T-17 cells; Amino acids 1-23 are stated as the predicted signal peptide; also called elephant CD137
T1 chain: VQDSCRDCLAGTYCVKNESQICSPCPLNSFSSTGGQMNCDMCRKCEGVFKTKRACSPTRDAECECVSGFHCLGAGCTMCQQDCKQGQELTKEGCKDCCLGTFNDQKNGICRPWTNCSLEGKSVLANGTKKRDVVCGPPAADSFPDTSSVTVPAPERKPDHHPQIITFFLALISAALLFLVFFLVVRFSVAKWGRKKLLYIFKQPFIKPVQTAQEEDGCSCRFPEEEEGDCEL
Procedure: (§1) 3×10⁶ HEK293T-17 cells were seeded in T75 culture flasks (Greiner Bio-One, cat. no. 658175) in 20 mL RPMI 1640 GlutaMAX medium containing 10% FCS (Biochrom, cat. no. S 0115). After O/N incubation, cells were transiently […] with expression vectors encoding the shuffle constructs or the wild boar, African elephant or human CD137 downstream of a constitutively active human elongation factor-1 alpha (EF-1 alpha) promotor using TransIT®-LT1 Transfection Reagent, Mirus Bio (VWR International, cat. no. 731-0029), according to the manufacturer's instructions. The next day, cells were harvested using 1.5 mL Accutase (Sigma Aldrich, cat. no. A6964) (incubation at 37° C. for 5 min.) and flow cytometry was performed, essentially as described supra, to measure surface expression of the shuffle constructs and the human, African elephant and wild boar CD137 and to measure binding of the antibody clones to the different shuffle constructs. […] Binding of the different CD137 antibody clones to cells expressing the shuffle constructs was measured by incubation of the transduced cells with 1 μg/mL of the antibody clones, followed by APC-labeled AffiniPure F(ab′)2 Fragment (1:50 final dilution; Jackson, cat. no. 109-136-127).

[2] = biological target: T2, Wild boar (Sus scrofa) CD137 (wild boar (Sus scrofa)); assay: flow cytometry on transfected HEK293T-17 cells
T2 construct: Expressed on transfected HEK293T-17 cells; Amino acids 1-23 are stated as the predicted signal peptide; also called wild boar CD137
T2 chain: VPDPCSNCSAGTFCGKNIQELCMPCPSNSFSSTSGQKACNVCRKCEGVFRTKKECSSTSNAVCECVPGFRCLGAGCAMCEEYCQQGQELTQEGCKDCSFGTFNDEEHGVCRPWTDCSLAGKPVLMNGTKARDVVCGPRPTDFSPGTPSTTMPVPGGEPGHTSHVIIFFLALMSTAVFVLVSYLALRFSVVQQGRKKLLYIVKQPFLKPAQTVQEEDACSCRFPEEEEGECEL
Procedure: as §1

[3] = biological target: T3, Human CD137 shuffle 5 (amino acids 48-88 of African elephant CD137) (human CD137 with an African elephant …, UniProt Q07011 24-255); assay: flow cytometry on transfected HEK293T-17 cells
T3 construct: also called shuffle construct 5
T3 chain: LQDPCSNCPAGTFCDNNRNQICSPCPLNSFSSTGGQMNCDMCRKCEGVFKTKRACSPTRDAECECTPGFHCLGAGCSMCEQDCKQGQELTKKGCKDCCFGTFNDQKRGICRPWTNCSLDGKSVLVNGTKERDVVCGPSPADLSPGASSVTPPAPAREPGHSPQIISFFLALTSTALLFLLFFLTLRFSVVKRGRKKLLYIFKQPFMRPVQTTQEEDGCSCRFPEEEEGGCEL
Procedure: as §1

Human CD137 = biological target: T4, Human CD137 (human, UniProt Q07011 24-255); assay: flow cytometry on HEK293T-17 cells transfected with human CD137, 1 µg/mL antibody
T4 construct: Amino acids 1-23 are stated as the predicted signal peptide; also called hCD137 wt; 4-1BB
Procedure: as §1

Shuffle 1 = biological target: T5, Shuffle 1; assay: flow cytometry on transfected HEK293-T17 cells, 1 µg/mL antibody, APC-labeled AffiniPure F(ab')2 fragment as secondary
T5 construct: Expressed on transiently transfected HEK293-T17 cells; also called Human CD137 shuffle 1 (amino acids 162-186 of wild boar CD137); shuffle construct 1
T5 receptor chain: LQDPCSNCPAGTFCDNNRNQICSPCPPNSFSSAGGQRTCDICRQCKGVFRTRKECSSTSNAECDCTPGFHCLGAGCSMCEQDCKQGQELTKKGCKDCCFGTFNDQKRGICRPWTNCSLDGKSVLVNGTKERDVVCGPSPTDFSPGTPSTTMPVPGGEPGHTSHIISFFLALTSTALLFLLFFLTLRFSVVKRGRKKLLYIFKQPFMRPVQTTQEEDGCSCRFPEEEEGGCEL
Procedure: as §1

Shuffle 2 = biological target: T6, Shuffle 2; assay: as above
T6 construct: Expressed on transiently transfected HEK293-T17 cells; also called Human CD137 shuffle 2 (amino acids 139-161 of wild boar CD137); shuffle construct 2
T6 receptor chain: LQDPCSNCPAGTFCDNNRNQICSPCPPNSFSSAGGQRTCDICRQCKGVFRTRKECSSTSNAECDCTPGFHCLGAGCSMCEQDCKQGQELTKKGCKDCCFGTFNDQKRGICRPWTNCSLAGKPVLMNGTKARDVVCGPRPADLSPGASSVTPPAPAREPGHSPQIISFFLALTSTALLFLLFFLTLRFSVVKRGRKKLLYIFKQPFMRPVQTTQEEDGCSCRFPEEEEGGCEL
Procedure: as §1

Shuffle 3 = biological target: T7, Shuffle 3; assay: as above
T7 construct: Expressed on transiently transfected HEK293-T17 cells; also called Human CD137 shuffle 3 (amino acids 115-138 of wild boar CD137); shuffle construct 3
T7 receptor chain: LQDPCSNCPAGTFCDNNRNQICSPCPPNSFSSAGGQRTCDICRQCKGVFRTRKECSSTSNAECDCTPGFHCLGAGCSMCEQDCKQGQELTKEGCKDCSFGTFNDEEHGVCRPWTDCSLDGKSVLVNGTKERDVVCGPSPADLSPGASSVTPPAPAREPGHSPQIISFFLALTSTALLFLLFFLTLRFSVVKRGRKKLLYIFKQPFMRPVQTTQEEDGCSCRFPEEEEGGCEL
Procedure: as §1

Shuffle 4 = biological target: T8, Shuffle 4; assay: as above
T8 construct: Expressed on transiently transfected HEK293-T17 cells; also called Human CD137 shuffle 4 (amino acids 89-114 of wild boar CD137); shuffle construct 4
T8 receptor chain: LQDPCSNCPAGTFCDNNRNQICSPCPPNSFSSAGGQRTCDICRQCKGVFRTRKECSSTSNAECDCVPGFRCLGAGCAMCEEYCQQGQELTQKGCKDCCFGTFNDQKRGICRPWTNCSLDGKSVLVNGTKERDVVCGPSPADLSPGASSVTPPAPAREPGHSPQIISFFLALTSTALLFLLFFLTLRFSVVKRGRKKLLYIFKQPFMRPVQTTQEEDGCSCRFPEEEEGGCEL
Procedure: as §1

B1: CD137-009 (chimeric rabbit/human CD137 antibody) (antibody, V domains shown)
VH: QSLEESGGRLVTPGTPLTLTCTVSGFSLNDYWMSWVRQAPGKGLEWIGYIDVGGSLYYASWAKGRFTISRTSTTVDLKMTSLTTEDTATYFCARGGLTYGFDLWGPGTLVTVSS
VL: DIVMTQTPASVSEPVGGTVTINCQASEDISSYLAWYQQKPGQRPKRLIYGASDLASGVPSRFSASGSGTEYALTISDLESADAATYYCHYYATISGLGVAFGGGTEVVVK
notes: also called antibody CD137-009; rabbit anti-CD137-009
[1]
  binding result: no binding (tested: 1 µg/mL)
[2]
  binding result: no binding (tested: 1 µg/mL)
[3]
  binding result: no binding (tested: 1 µg/mL)
Human CD137
  binding result: binds
Shuffle 1
  binding result: binds
Shuffle 2
  binding result: binds
Shuffle 3
  binding result: binds
Shuffle 4
  binding result: binds
